Laboratory results as given in article PMC13470446.

Target: microtubule polymers
Conditions: domain or fragment; chains chain; Polymerised alpha/beta-tubulin heterodimers (one repeat given). Source is not printed (assay 'as previously described' in a cited paper); commercial mammalian brain tubulin is assumed, porcine taken as likeliest (bovine possible). Brain tubulin is an isotype mixture with heterogeneous PTMs (acetyl-Lys40, detyrosination, polyglutamylation); TUBA1B and the pig beta chain are representatives only. GT; modification not given

B1: Smc5 hinge domain (residues 215–885), Q08204 215-885 (protein)
chain: LRELQGNEQSLQKDLDFKKAKIVHLRQESDKLRKSVESLRDFQNKKGEIELHSQLLPYVKVKDHKEKLNIYKEEYERAKANLRAILKDKKPFANTKKTLENQVEELTEKCSLKTDEFLKAKEKINEIFEKLNTIRDEVIKKKNQNEYYRGRTKKLQATIISTKEDFLRSQEILAQTHLPEKSVFEDIDIKRKEIINKEGEIRDLISEIDAKANAINHEMRSIQRQAESKTKSLTTTDKIGILNQDQDLKEVRDAVLMVREHPEMKDKILEPPIMTVSAINAQFAAYLAQCVDYNTSKALTVVDSDSYKLFANPILDKFKVNLRELSSADTTPPVPAETVRDLGFEGYLSDFITGDKRVMKMLCQTSKIHTIPVSRRELTPAQIKKLITPRPNGKILFKRIIHGNRLVDIKQSAYGSKQVFPTDVSIKQTNFYQGSIMSNEQKIRIENEIINLKNEYNDRKSTLDALSNQKSGYRHELSELASKNDDINREAHQLNEIRKKYTMRKSTIETLREKLDQLKREARKDVSQKIKDIDDQIQQLLLKQRHLLSKMASSMKSLKNCQKELISTQILQFEAQNMDVSMNDVIGFFNEREADLKSQYEDKKKFVKEMRDTPEFQSWMREIRSYDQDTKEKLNKVAEKYEEEGNFNLSFVQDVLDKLESEIAMVNHDES
Kd: 690 nM
